In patent US9267116B2, “Amino acid dehydrogenase, and process for producing L-amino acid, 2-oxo acid or D-amino acid” (KANEKA CORPORATION, priority 2008, dated 2016):

Assay: Properties of the purified amino acid dehydrogenase (specific activity, action temperature and pH), NADH decline at 340 nm
Format: biochemical, Rhodococcus qingshengii strain KNK2108
Conditions: 30° C., pH 9.0, phenylpyruvic acid substrate; 1 unit = 1 μmol NADH consumed in 1 minute
Experimental: In the embodiments, the amino acid dehydrogenase activity of the polypeptide can be measured, for example, based on the rate of decline in the absorbance at a wavelength of 340 nm when 1.2 mL of 0.5 M NH3/NH4Cl buffer (pH 9.0), 0.2 mL of 0.1 M sodium carbonate buffer (pH 9.0) containing 3 mM NADH coenzyme, and 0.1 mL of an appropriately diluted enzyme solution are added to 1.5 mL of 0.1 M sodium carbonate buffer (pH 9.0) containing 10 mM phenylpyruvic acid as substrate and a reaction is run for 1 minute at 30° C. In the embodiments, the amino acid dehydrogenase activity was measured using this method unless indicated otherwise.
The activity of the amino acid dehydrogenase was measured based on the rate of decline in the absorbance at a wavelength of 340 nm when 1.2 mL of 0.5 M NH3/NH4Cl buffer (pH 9.0), 0.2 mL of 0.1 M sodium carbonate buffer (pH 9.0) that contained 3 mM NADH coenzyme, and 0.1 mL of the appropriately diluted enzyme solution were added to 1.5 mL of 0.1 M sodium carbonate buffer (pH 9.0) that contained 10 mM phenylpyruvic acid substrate and a reaction was carried out for 1 minute at 30° C. 1 unit is defined here as the quantity of enzyme that consumed 1 μmol NADH in 1 minute. The protein was quantified by the Bradford method using BSA as the reference protein.
The action temperature range and the optimal temperature were examined. […]

B1: purified amino acid dehydrogenase: amino acid dehydrogenase purified from Rhodococcus qingshengii strain KNK2108 (Example 1), SEQ ID NO:1, classified as phenylalanine dehydrogenase (protein, listed as Rhodococcus qingshengii)
chain: MSIDDELRWDGELTVTRHDRETGTTFVIRIDSTRLGPASGGTRAAHYPSIGHALADAGKLAGAMTLKMAVSDLPMGGGKSVIALPAPRNQIDAATWSRILGIHAENIDKLEGNYWTGPDVNTNSSDMDQLSRTTRYVFGRSVDKGGAGSSAHATALGVFEAMKATARRRGLGTLDGRTVLVQGLGAVGGDVVRLAAQAGARLLVADTDPQRLEAASLAGHTVVPAGEVLRTPCDLFAPCAMGGIIDFAAAASIPTLAVAGAANNILTDAAAGEVLRDRGVLCAPDFVANAGGAFHLVGREVLGWNEDYVVERTRGIGRTLDEVYSLSEERGITTEAAALMLARARLSPASTAAAATSAAPAAAAASPA
specific activity: 204 units/mg protein
